Measured values taken from patent publication US20220380433A1.

Legend:
[1] = biological target: H63 CAR (CD8 signal peptide-H63-human CD8 hinge region-human CD8 transmembrane region-human 4-1BB costimulatory domain-CD3zeta signaling domain), on H63 CAR-T lymphocytes; experiment: flow cytometry; biotin-protein L and PE-streptavidin on H63 CAR-T lymphocytes
[2] = biological target: H63 CAR as expressed from H63 CAR-2A-TMEM59, on H63 CAR-2A-TMEM59-T lymphocytes; experiment: flow cytometry; biotin-protein L and PE-streptavidin on H63 CAR-2A-TMEM59-T lymphocytes
H63 CAR as expressed from H63 CAR-2A-TMEM59, on H63 CAR-2A-TMEM59-T lymphocytes, sequence (chain, as listed by the source): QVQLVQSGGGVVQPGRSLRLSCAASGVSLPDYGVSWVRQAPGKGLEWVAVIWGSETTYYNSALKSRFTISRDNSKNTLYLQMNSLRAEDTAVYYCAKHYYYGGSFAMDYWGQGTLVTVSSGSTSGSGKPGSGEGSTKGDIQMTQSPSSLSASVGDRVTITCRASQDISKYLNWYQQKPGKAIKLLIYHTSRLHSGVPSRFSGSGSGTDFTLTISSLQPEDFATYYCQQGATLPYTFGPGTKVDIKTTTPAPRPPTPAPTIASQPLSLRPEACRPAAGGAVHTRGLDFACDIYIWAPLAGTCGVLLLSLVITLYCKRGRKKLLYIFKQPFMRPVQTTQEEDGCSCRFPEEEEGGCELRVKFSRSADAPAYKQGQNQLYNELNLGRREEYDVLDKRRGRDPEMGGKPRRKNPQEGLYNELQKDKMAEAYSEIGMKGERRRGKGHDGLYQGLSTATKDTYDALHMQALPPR

H63 CAR (CD8 signal peptide-H63-human CD8 hinge region-human CD8 transmembrane region-human 4-1BB costimulatory domain-CD3zeta signaling domain), on H63 CAR-T lymphocytes, sequence (chain, as listed by the source): as above

CAR positive cells % (protein L-positive) [1]: 82.7% | CAR positive cells % (protein L-positive) [2]: 83.2%
Substance: biotin-protein L (ACROBIOSYSTEMS, RPL-P814R)
